The values that follow come from article PMC2823527 (The Journal of Biological Chemistry, 2009).

Like-named read-outs stand apart in the source and are kept apart here.

The chains are these.
T1: Sgf11 full-length, released from GST (S. cerevisiae, UniProt Q03067 1-99)
T1 sequence (looked up): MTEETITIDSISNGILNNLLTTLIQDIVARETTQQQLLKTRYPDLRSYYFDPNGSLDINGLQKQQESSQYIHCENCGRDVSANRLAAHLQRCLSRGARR

T2: GST-Sac3 723-805 / Cdc31 complex (yeast, UniProt P46674 723-805; P06704 1-161)
T2 sequence (looked up) 1: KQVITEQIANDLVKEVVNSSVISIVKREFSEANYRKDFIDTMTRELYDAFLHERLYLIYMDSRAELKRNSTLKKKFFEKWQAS
T2 sequence (looked up) 2: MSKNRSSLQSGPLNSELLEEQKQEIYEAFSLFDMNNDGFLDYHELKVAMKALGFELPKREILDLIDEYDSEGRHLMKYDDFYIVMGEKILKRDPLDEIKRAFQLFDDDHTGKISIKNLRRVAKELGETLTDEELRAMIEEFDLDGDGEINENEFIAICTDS

T3: GST-Sac3 753-805 / Cdc31 complex (yeast, UniProt P46674 753-805; P06704 1-161)
T3 sequence (looked up) 1: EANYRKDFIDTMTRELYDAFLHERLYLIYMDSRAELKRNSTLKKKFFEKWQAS
T3 sequence (looked up) 2: T2 sequence (looked up) 2

B1: Sgf11-(1-33), released from GST (domain or fragment, S. cerevisiae, UniProt Q03067 1-33, looked up)
chain: MTEETITIDSISNGILNNLLTTLIQDIVARETT
B2: Sus1 (natural protein, yeast, UniProt Q6WNK7 1-96, looked up)
chain: MTMDTAQLKSQIQQYLVESGNYELISNELKARLLQEGWVDKVKDLTKSEMNINESTNFTQILSTVEPKALEMVSDSTRETVLKQIREFLEEIVDTQ
B3: Sgf11-(7-33), released from GST (domain or fragment, S. cerevisiae, UniProt Q03067 7-33, looked up)
chain: TIDSISNGILNNLLTTLIQDIVARETT

For experiment [1], the target named is B2. Description: crystal structure.
The target in experiment [2] is T1, Sgf11 full-length, released from GST. The experiment can be described thus: SEC. On the technique in general: SEC sorts molecules by how far they enter the pores of the column.
Experiment [3] deals with T2, GST-Sac3 723-805 / Cdc31 complex. The experiment can be described thus: pull-down.
The target in experiment [4] is T3, GST-Sac3 753-805 / Cdc31 complex. Description: pull-down.
The target in experiment [5] is B2. Description: crystal structure. This is another data set of the same source.

For B1, the binding result with Sus1 [1] is on record as “binds”.

Turning to B2, the binding result in experiment [2], in experiment [3] and in experiment [4] was “binds” throughout.

As for B3, in the experiment with Sus1 [5], the binding result is “binds”.
